The text below walks through data of a protein production outcome set (Wang et al. 2014).
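Also: failed if final PepcDB status was selected cloned or expressed and not failed if soluble or beyond.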

This data set is described as follows: label from the status in PepcDB records.
Turning to “MENKPDYFHHIEHRKFQSSSKITLWLSLVITMIFTVVEFVGGIVSNSLALLSDSFHMLSDVLALGLSMVAIYFSSKPPTKNYTYGFLRLEIIVAFLNGLALIVISLGIMYEGIMRIIHPRPVESGIMILIAFIGLIANIVLTIILMISLKKENNINIQSALWHFIGDLLNSLGIIVAFVLIHFTGWNIVDPIISILISLIILRGGYKIIKNASKVLMERVPDRYDTDEIMGAMKDVEGVIDIHEFHLWSVTTNQSSLSAHVVLSDDYIKSPYATINKVSDLLKTQYGLEHVTLQIENINLNHLDEEYFKQLQE”, the protein production result is “failed”.
In the case of “MENLALTTLLLPFIGALVVSFSPQRRAAEWGVLFAALTTLCMLSLISAFYQADKVAVTLTLVNVGDVALFGLVIDRVSTLILFVVVFLGLLVTIYSTGYLTDKNREHPHNGTNRYYAFLLVFIGAMAGLVLSSTLLGQLLFFEITGGCSWALISYYQSDKAQRSALKALLITHIGSLGLYLAAATLFLQTGTFALSAMSELHGDARYLVYGGILFAAWGKSAQLPMQAWLPDAMEAPTPISAYLHAASMVKVGVYIFARAIIDGGNIPHVIGGVGMVMALVTILYGFLMYLPQQDMKRLLAWSTITQLGWMFFGLSLSIFGSRLALEGSIAYIVNHAFAKSLFFLVAGALSYSCGTRLLPRLRGVLHTLPLPGVGFCVAALAITGVPPFNGFFSKFPLFAAGFALSVEYWILLPAMILLMIESVASFAWFIRWFGRVVPGKPSEAVADAAPLPGSMRLVLIVLIVMSLISSVIAATWLQ” it was “failed”.
In the case of “MENLKNVAPIEDFNWDAYENGEAVTSASHEDLEKAYDGTLNKVNDREVVDGTVIAMNKREVVVNIGYKSDGIIPLNEFRYNPDLKVGDTVEVYIENQEDKKGQLVLSHRKARATRSWDRVNAALENEEIIKGFIKCRTKGGMIVDVFGIEAFLPGSQIDVKPIRDYDVFVGKTMEFKVVKINQEFKNVVVSHKALIEAELEQQKKEIIGKLEKGQVLEGTVKNITSYGVFIDLGGVDGLIHITDLSWGRVSDPKEVVELDQKLNVVILDFDDEKKRIALGLKQLTPHPWDALDTDLKVGDKVKGKVVVMADYGAFIEIATGVEGLIHVSEMSWSQHLRSAQDFMKVGDEVEAVVLTLDREERKMSLGIKQLKQDPWETIEEKYPVGSKHTAKVRNFTNFGVFVEIEEGVDGLIHISDLSWTKKVKHPSEFTQIGADIEVQVLEIDKENRRLSLGHKQLEENPWDVFETVFTVGSVHEGTIIEMLDKGAVVALPYGVEGFATPKHLVKEDGSQAQLDEKLEFKVIEFNKDAKRIILSHSRIFEDVAKAEERAEKKAASGAKKSSNNKREDAPMIQNQAASTTLGDIDALAALKEQLEGKKLEHHHHHH” it was “not failed”; in that of “MENMIVIMAGGRSSRMGAEKPILKVNGKPMILRVYEESTKVGETLVAISKNTPKTRELCIKEGIPLIETPGEGYVEDVRYLLKELGSFVSVSADLPFVKACDIAEVKKAFDGKTSLTGVLPLSKVPTDLRPVVYKGYVIVGLNGVGFEGEKFYELSNPLLALNVNTPEELKLANRIAKLIGLEHHHHHH”, “failed”.
Consider “MENQKMQEPLVYRRILLTVDEDDNTSSERAFRYATTLAHDYDVPLGICSVLESEDINIFDSLTPSKIQAKRKHVEDVVAEYVQLAEQRGVNQVEPLVYEGGDVDDVILEQVIPEFKPDLLVTGADTEFPHSKIAGAIGPRLARKAPISVIVVR”, for which the protein production entry is “not failed”.
For “MENRAHALAAGLFILLLGVATVMAVKWFSRDSVSYNHYFLVSAGGAVSGLNPEASVRYRGVNVGKVEEIYFDRENIRNIIVRIAVNHNVVLPGDIYAQLASQGITGLTYIELNDDVADAETKPLQNEARIPLRSSLIKTLSDSLEEILKNSNMAIRQISNLLNEQNQTHISSILSHLEQAVQHYDTLTGQLQKGLQTLPQLSSELTSTFKQTRQVMENTSQVLQKLNQQQGLVDNLTQGSLEMTRTLTSLNETGVAITQSAHKLDQLLNLLEDHPQSLVFGKPPALPGPGEPGFSPPQPGK”, the protein production result is recorded as “failed”.
In the case of “MENSDETKMSEEILALVDEFQQAWPLEGFGGALEMKGRRLDLQGIRVLKKGPQDGVARSSCYGDCRSEDDEATEWITFQVKRVKKPKGDHKKTPGKKVETGQIENGHRYQANLEITGPKVASPGPQGKKRDYQRLGWPSPDECLKLRWVELTAIVSTWLAVSSKNIDITEHIDFATPIQQPAMEPLCNGNLPTSMHTLDHLHGVSNRASLHYTGESQLTEVLQNLGKDQYPQQSLEQIGTRIAKVLEKSQTSWVLSSMAALYWRVKGQGKKAIDCLRQALHYAPHQMKDVPLISLANILHNAKLWNDAVIVATMAVEIAPHFAVNHFTLGNVYVAMEEFEKALVWYESTLKLQPEFVPAKNRIQTIQCHLMLKKGRRSP” it was “failed”.
